# Laboratory results from US20020055173, “Method for preparing adenovirus vectors, vectors so prepared, and uses thereof” (published 2002).
# Where a chain is given by its changes, count along the chain named.
# B1: minimal MLP M3 (-18GC and -36GC mutant) (dsDNA)
# DNA 1: TGTTGTTGTTCTATAAAAGTGTGTGTGTGTGCGTTCGTCCTCACTCTCTTCC
# DNA 2: GGAAGAGAGTGAGGACGAACGCACACACACACACTTTTATAGAACAACAACA
# B2: minimal MLP wild type (dsDNA)
# DNA 1: TGAAGGGGGGCTATAAAAGGGGGTGGGGGCGCGTTCGTCCTCACTCTCTTCC
# DNA 2: GGAAGAGAGTGAGGACGAACGCGCCCCCACCCCCTTTTATAGCCCCCCTTCA
# B3: minimal MLP M2 (-36GC mutant) (dsDNA)
# DNA 1: B1 DNA 1 with T20G, T22G, T26G, T28G, T30C
# DNA 2: B1 DNA 2 with A23G, A25C, A27C, A31C, A33C
# B4: minimal MLP M1 (-18GC mutant) (dsDNA)
# DNA 1: B2 DNA 1 with G20T, G22T, G26T, G28T, C30T, C32T
# DNA 2: B2 DNA 2 with G21A, G23A, C25A, C27A, C31A, C33A
# Tests used:
# MAZ [1] = molecular target: T1, MAZ (UniProt P56270 P56270:1-477); assay: footprint; interaction substantially blocked; conditions: tags: prepared as in Parks and Shenk 1996; label: 5' end label in luciferase coding region
# T1 sequence: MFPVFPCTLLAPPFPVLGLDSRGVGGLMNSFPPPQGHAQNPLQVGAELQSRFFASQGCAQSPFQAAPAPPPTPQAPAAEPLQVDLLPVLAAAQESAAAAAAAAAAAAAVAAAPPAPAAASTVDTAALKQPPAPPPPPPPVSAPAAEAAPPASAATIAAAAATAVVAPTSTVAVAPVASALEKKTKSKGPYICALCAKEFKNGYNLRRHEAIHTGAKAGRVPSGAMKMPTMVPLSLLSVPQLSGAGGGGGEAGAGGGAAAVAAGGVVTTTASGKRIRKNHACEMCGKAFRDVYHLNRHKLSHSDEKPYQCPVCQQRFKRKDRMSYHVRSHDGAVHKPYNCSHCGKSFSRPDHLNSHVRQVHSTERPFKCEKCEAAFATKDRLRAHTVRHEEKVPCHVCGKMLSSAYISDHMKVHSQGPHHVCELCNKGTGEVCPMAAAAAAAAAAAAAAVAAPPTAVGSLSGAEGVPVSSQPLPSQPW
# Sp1 [2] = molecular target: T2, Sp1 (UniProt P08047 P08047:2-785); assay: footprint; interaction substantially blocked; conditions: tags: Promega; label: 5' end label in luciferase coding region
# T2 sequence (P08047 2-785, one chain of several): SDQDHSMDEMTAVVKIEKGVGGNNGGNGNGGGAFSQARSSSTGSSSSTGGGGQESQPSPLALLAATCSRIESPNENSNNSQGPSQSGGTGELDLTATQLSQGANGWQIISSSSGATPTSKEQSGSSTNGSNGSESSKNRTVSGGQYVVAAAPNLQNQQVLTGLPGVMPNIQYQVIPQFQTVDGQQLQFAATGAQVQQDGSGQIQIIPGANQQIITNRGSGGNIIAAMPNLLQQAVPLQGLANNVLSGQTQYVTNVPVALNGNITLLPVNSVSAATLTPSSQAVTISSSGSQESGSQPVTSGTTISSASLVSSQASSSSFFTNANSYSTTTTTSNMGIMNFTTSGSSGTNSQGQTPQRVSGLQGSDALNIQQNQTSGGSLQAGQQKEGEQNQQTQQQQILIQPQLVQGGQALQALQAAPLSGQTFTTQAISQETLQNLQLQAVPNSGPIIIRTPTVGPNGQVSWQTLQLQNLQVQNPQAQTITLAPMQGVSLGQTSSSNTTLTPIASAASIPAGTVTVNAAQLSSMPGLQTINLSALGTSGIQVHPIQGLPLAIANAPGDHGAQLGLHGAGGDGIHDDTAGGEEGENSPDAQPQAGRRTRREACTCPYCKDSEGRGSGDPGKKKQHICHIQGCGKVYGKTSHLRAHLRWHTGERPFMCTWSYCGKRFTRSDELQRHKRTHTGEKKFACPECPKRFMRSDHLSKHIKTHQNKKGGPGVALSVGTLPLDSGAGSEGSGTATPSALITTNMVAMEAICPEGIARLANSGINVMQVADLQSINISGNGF
# MAZ [3] = molecular target: T1, MAZ; assay: footprint; two MAZ sites; conditions: tags: prepared as in Parks and Shenk 1996; label: 5' end label in luciferase coding region
# Sp1 [4] = molecular target: T2, Sp1; assay: footprint; one Sp1 site (-18GC); conditions: tags: Promega; label: 5' end label in luciferase coding region
# Sp1 [5] = molecular target: T2, Sp1; assay: footprint; Sp1 footprint not altered; conditions: tags: Promega; label: 5' end label in luciferase coding region
# Sp1 [6] = molecular target: T2, Sp1; assay: footprint; interaction completely blocked; conditions: tags: Promega; label: 5' end label in luciferase coding region
binder,measurement,setting,value
B1,binding result,MAZ [1],no binding
same,binding result,Sp1 [2],no binding
B2,binding result,MAZ [3],binds
same,binding result,Sp1 [4],binds
B3,binding result,Sp1 [5],binds
B4,binding result,Sp1 [6],no binding
